Results on 2 molecules are retold here after patent US20200157212A1 (Pfizer, published 2020).

For one test, the target named is T1, Human ROBO2 Ig1-Ig2-His (human, UniProt Q9HCK4 31-220).
T1 construct: the His tag is named only in the SPR paragraphs; the Octet and ELISA paragraphs print 'ROBO2 Ig1-Ig2' without a tag; also called ROBO2 Ig1-2; Human ROBO2 Ig 1,2
T1 sequence: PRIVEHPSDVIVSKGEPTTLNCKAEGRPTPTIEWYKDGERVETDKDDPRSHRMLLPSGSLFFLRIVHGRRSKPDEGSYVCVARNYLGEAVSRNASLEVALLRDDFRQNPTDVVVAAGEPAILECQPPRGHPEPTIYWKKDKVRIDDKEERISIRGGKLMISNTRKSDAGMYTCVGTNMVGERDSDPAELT
Briefly: Octet (BLI). A general note: BLI is a label-free optical method that tracks binding on a fibre tip over time.

Test [1] addresses T2, Human ROBO2 KSR mutant overexpressed on HEK293 cells (human, UniProt Q9HCK4 22-1378).
T2 construct: R100K and K102R already in the entry
T2 sequence: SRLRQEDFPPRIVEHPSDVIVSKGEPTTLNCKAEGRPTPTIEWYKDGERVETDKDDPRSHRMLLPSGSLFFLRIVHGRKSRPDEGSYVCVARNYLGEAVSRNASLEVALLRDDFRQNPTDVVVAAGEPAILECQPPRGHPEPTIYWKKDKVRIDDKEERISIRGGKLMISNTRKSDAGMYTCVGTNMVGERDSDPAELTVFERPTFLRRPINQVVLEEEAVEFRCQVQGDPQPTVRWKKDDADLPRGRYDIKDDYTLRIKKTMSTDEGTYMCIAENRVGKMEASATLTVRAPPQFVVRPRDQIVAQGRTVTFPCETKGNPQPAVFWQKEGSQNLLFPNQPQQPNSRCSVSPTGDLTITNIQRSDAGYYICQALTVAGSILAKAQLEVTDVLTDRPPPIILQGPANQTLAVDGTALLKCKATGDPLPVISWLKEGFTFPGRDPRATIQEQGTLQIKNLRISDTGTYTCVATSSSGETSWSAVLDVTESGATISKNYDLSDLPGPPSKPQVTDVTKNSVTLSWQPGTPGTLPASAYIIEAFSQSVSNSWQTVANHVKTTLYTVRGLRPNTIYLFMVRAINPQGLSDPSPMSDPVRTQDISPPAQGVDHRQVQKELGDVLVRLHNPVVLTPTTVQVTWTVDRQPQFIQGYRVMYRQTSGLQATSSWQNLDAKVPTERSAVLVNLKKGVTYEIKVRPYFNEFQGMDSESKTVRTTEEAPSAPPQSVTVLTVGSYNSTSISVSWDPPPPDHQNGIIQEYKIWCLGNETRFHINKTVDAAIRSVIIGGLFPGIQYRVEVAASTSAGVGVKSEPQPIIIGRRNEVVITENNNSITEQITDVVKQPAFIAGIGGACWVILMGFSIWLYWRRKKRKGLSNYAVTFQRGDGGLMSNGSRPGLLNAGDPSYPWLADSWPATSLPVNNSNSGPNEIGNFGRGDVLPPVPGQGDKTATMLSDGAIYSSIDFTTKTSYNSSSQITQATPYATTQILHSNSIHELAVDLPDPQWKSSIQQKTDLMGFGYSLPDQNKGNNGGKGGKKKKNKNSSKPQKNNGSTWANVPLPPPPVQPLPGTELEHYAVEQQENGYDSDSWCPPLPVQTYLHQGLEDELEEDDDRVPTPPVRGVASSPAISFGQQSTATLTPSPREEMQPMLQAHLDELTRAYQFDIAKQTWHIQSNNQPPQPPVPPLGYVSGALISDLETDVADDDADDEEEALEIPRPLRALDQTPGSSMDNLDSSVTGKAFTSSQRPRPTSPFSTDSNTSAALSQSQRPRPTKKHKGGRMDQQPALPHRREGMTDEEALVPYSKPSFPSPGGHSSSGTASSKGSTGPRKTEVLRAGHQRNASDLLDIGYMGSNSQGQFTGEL
Put plainly: flow cytometry on HEK293 cells overexpressing the ROBO2-KSR mutant. On the procedure: The binding profile of Abcs35-J compared to Abcs35 was determined for human ROBO2, orthologs from cynomolgus monkey and rat, human ROBO1 and specificity for the RSK epitope from ROBO2 but not KSR from ROBO1. Binding was assessed by flow cytometry as described in Examples 2 (homolog specificity), Example 3 (ortholog reactivity) and Example 5 (RSK vs KSR epitope specificity). […] Binding of the antibodies was detected using a secondary fluorochrome conjugated anti-human IgG F(ab′)₂ antibody and samples analyzed on a Fortessa cytometer (BD Biosciences). […] FIGS. 16A-16F depicts binding profiles of Abcs35 (black circles) or Abcs35-J (grey squares) to human ROBO2 (FIG. 16A), cynomolgus monkey ROBO2 (FIG. 16B), rat ROBO2 (FIG. 16C), human ROBO1 (FIG. 16D), ROBO1 containing the ROBO2 RSK epitope (FIG. 16E) or ROBO2 containing the ROBO1 KSR epitope (FIG. 16 F).
(A flow cytometer gives signals particle by particle.)

B1: 93H2 (antibody, human IgG1, kappa, V domains shown)
VH: EVQLVQSGAEVKKPGASVKVSCKASGYTFTGYYMHWVRQAPGQGLEWMGWINPNSGATNFPQKFQGRVTMTRDTSITTAYMDLSRLRSDDTAVYYCARESGDDAFDIWGQGTMVTVSS
VL: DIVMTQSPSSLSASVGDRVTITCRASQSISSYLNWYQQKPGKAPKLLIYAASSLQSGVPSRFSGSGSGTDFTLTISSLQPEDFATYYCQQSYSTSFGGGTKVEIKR
notes: also called parental 93H2; 93H2 mAb
B1: the Kd in the test with Human ROBO2 Ig1-Ig2-His is 37 nM.

B2: Abcs35-J (antibody, human IgG1, kappa)
heavy: EVQLVQSGAEVKKPGASVKVSCKASGYTFTGYYMHWVRQAPGQGLEWMGWINPKNGDTEFPQKFQGRVTMTRDTSITTAYMELSRLRSDDTAVYYCARESGDDAFDIWGQGTMVTVSSASTKGPSVFPLAPSSKSTSGGTAALGCLVKDYFPEPVTVSWNSGALTSGVHTFPAVLQSSGLYSLSSVVTVPSSSLGTQTYICNVNHKPSNTKVDKKVEPKSCDKTHTCPPCPAPEAAGAPSVFLFPPKPKDTLMISRTPEVTCVVVDVSHEDPEVKFNWYVDGVEVHNAKTKPREEQYNSTYRVVSVLTVLHQDWLNGKEYKCKVSNKALPAPIEKTISKAKGQPREPQVYTLPPSREEMTKNQVSLTCLVKGFYPSDIAVEWESNGQPENNYKTTPPVLDSDGSFFLYSKLTVDKSRWQQGNVFSCSVMHEALHNHYTQKSLSLSPGK
light: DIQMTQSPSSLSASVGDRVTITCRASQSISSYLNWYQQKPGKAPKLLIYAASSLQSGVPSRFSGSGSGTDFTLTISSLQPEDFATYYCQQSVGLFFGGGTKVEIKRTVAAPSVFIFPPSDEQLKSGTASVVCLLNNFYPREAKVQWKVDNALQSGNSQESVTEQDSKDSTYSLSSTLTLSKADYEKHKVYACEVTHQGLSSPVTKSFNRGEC
notes: germlined variant of Abcs35; also called ABCS-J
Take B2: the binding result in test [1] is “no binding (tested: last point just below 10^1 nM)”.

Broadly, the Kd is the constant that tells how readily two partners part at equilibrium. Low readings indicate higher affinity, high ones lower affinity.
